Measurements published in US20260258472A1.

Tests used:
[1] = biological target: Human SOD1 in sporadic ALS (sALS) spinal cord homogenate (human) (UniProt P00441); assay: immunoprecipitation with antibody-linked magnetic beads; immunoblot of the flow-through of sALS patient 4 spinal cord homogenate
[2] = biological target: Human SOD1 in sporadic ALS (sALS) spinal cord homogenate (human) (UniProt P00441); assay: cell-based or functional assay

Chain of UniProt P00441 (P00441 2-154 limits assumed): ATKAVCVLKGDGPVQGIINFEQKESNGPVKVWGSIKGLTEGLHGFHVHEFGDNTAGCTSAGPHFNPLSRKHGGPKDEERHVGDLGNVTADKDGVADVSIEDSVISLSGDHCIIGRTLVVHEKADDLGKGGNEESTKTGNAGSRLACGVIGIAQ

Substance | percent SOD1 remaining in flow-through compared to input [1] | 50% ThT (RFU), SOD1 RT-QuIC after immunodepletion [2] | Lag phase (hours), SOD1 RT-QuIC after immunodepletion [2]
Anti-human SOD1 antibody C4F6 (misfolded SOD1; MediMabs #MM-0070-2-P) | 21% | 21900 RFU | 62.4 h
Isotype control antibody mIgG2a (ThermoFisher #MA110418) | 28% | 27600 RFU | 57.6 h
Isotype control antibody mIgG2b (ThermoFisher #MA110427) | 75% | 32100 RFU | 70.2 h
Mouse-anti-SOD1 antibody, clone O98B10 (pan-SOD1; BioLegend #850702) | 23% | 27300 RFU | 62.7 h
